Reference: US20190169637A1

Columns and labels:
CD19 = CD19 (UniProt P15391); assay: cell-based or functional assay
[1] = tested on: Sleeping Beauty transposase SB100X (hyperactive) (synthetic construct (reconstructed Tc1-like fish transposon)); assay: cell_activity; conditions: day 14, CD8+ T cells, n=7

UniProt P15391, sequence (P15391 20-556 limits assumed): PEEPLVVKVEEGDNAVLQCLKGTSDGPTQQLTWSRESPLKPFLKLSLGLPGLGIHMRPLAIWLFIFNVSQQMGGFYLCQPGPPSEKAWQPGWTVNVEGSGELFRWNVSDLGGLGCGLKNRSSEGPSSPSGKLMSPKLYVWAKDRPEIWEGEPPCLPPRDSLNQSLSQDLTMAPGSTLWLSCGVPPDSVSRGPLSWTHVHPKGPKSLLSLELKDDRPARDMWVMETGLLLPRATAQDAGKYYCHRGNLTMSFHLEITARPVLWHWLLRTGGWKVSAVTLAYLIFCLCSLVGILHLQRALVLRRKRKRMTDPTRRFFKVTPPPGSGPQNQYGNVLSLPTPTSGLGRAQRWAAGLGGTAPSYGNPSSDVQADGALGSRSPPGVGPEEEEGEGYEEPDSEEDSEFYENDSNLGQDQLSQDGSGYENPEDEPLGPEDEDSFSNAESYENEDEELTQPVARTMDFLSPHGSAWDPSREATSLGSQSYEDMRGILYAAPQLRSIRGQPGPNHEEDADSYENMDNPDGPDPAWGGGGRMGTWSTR

CD19-CAR (FMC63 targeting domain, IgG4-Fc Hinge spacer, CD3zeta and 4-1BB costimulation) (from UniProt P01861 99-110; Q07011 214-255; P20963 52-163)
proliferation by CFSE dilution (cell divisions in 72 hours) (CD19): > 3

CD19-CAR_EGFRt transposon in pT2/HB minicircle
activity (% EGFRt+ cells) ([1]; SB100X from minicircle): 49.8

CD19-CAR_EGFRt transposon in pT2/HB plasmid
activity (% EGFRt+ cells) ([1]; SB100X from plasmid): 12.8
